Assay results reported in the RNAGym collection of RNA variant scans (doi:10.1073/pnas.2313332121).
Variants at the floor of the assay were thinned out.

B1: TPR 5TU (parent)
chain: GGAUCUUCUCGAUCUAACAAAAAAGACAAAUCUGCCACAAAGCUUGAGAGCAUCUUCGGAUGCAGAGGCGGCAGCCUUCGGUGGCGCGAUAGCGCCAACGUUCUCAACUAUGACACGCAAAACGCGUGCUCCGUUGAAUGGAGUUUAUCAUG

Variants of: B1
Test: polymerase ribozyme fitness, log enrichment relative to wild type (log ratio); higher = more active; in vitro selection for triplet polymerase activity
How it was run: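 One round of in vitro selection, in triplicate, was applied to PCR-built, transcribed mutant libraries of each subunit of a heterodimeric triplet polymerase ribozyme. The steps were annealing with a biotinylated primer, partner subunit and triplets, incubation frozen at −7 °C, gel excision of extended constructs, streptavidin-bead capture and RT-PCR. Fitness is the logarithm, base 2, of genotype enrichment over wild-type enrichment from inverse-variance-weighted replicate averages of Illumina-sequenced inputs and outputs, keeping genotypes with ≥10 input reads and ≥1 read per output.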

Variant	polymerase ribozyme fitness (log ratio)
C8U A30U C32U A64G C76A A97G A107U C108U A110G C116A	-4.12
U9G G74A A91G C93U G141U	≤ -4.2
C10A G58C A66U G80A C95U C96U U144G	≤ -4.2
C8G A147C	≤ -4.2
U7G A26U U56A G59U C75G G84U G94U U130G U146C	≤ -4.2
C10A C32A C54U C116A G143A	≤ -4.2
C8A G83U U90G C118A	≤ -4.2
U7C A39G C85G C105A A107U	≤ -4.2
C8U C95U C116G U135A	-3.94
C8U C27U A37C U55A C87G U111A C118G G124A	≤ -4.2
U7G C27U G48C G59C C76U C79A G83U C93A	≤ -4.2
C8A A12U U15G G62U G124A	≤ -4.2
C8U C10G C35G C57A A66U G86U U134C U139C U148A	≤ -4.2
C8G A16C G25U A37C G59C A64U C87A G92C	≤ -4.2
C8A A26U	-3.66
U9G C10U U77G G83A A110G	≤ -4.2
U7C U31A G46A G59C C85G C118U	≤ -4.2
U9G A52G G71A A73G G128U G143U	≤ -4.2
U7C A41C C87U G126A	-3.82
U7G C14G A52C U55C G80A G86U C87A	≤ -4.2
C8U C14G U33G C51G C54U C57A U77G C87G G136U	≤ -4.2

Variant	polymerase ribozyme fitness (log ratio)
C8A C35G C51U G59A A73G C76A C85G A138U U151C	≤ -4.2
U9C A40C U45A G65C C85A U111G A113U C118G	≤ -4.2
U9C A40C U56A C96G U101C U134C	≤ -4.2
U9G A29U U45G C75A G88U C96A G141A	≤ -4.2
C8A G42U G50A G74U C95U	≤ -4.2
U7C U15G A41U A52G C96A	-3.52
C8U C35U G80A G83A U102G U145C U146C	≤ -4.2
C8A C27U G70A C96U	≤ -4.2
U7G A37G C38U G59U A60U G94U C108U	≤ -4.2
C10A A12G A17U C32A C96U A110U C116U A147C	≤ -4.2
C10A C87U	-3.47
C10A U15G G58A G86U A98G A138U	≤ -4.2
U7C U53G G86C A106G A150C	≤ -4.2
U7G C35U U45A A52U G59A C93G G128A G141C	≤ -4.2
C8G A52G	-3.17
C8U A21C A28U U53A U77G G88U U145G A150C	≤ -4.2
C8A C10G G50U C51G U56G C57G G62A G86A	≤ -4.2
U9A A12U C85U G88C U148G	≤ -4.2
C8G C96U	-3.47
C10A C93G	≤ -4.2
U9A C87A	≤ -4.2

Variant	polymerase ribozyme fitness (log ratio)
U9G G68C G83A G84A C149U	≤ -4.2
U7A U45G A49C G50C C87U C96A	≤ -4.2
C10A G11U A30U C36A G48A C87G A122G	≤ -4.2
C8G C10G C14G A41C G83U A119U G141C	≤ -4.2
U7C A21C U33G C43U G62A C87U	≤ -4.2
U9A A21G A41C G48U A49C U111G C131A	≤ -4.2
C8G C43G A52G C93G C114G A121G	≤ -4.2
C8G C35U G46C C72U G74U C96U A107G	≤ -4.2
C8G C14U A26C U61A C69U G80A U145G	≤ -4.2
U9G A21U C35U U55A C108U C118U G128A G133A	≤ -4.2
C8G G84A	-3.43
U9A C75G C85G C95G	≤ -4.2
C10G A20C A40U A64G G70U C87U	≤ -4.2
C8A G86A	-3.76
C10A A47G A64G G81U G84U	≤ -4.2
U9G U61A C75U C85U G124C	≤ -4.2
C10A A22U A37C U134C A142G	-4
C8G U82G G84U C85U A107C	≤ -4.2
C8G G42A G59U A66U C87G U139G	≤ -4.2
U9C A17C C54U A120G	≤ -4.2
C8G U13A U33G G71A G74A C87G C96A C105A	≤ -4.2

Variant	polymerase ribozyme fitness (log ratio)
U7G G141C	-3.41
U9G A20U U31C C38G G86A U127G	≤ -4.2
U9C C10G C35U G94A C103A C108U A115U G140U	≤ -4.2
C8A U31A U56G C63A G68U C99A G128U	≤ -4.2
U9G U15C A19U C35G A113U C132U	≤ -4.2
U7C A23G A49U U56G G84U G86U A137U	≤ -4.2
U7G C75G G84A G141A	≤ -4.2
C10A C32G C38U U56G A60G C95A C131U G140U	-4.19
C8U C14G G50C A106U A110G	≤ -4.2
U9C C43G G65A G67C C95A	-4.09
U7C A23U C87A A89G A115U U134A	≤ -4.2
C8U C57U U61A G117A A121U U134C	-4.09
C8U A49U A52G	-3.79
U7G A64C A122G	≤ -4.2
U9G A17G A41G U53A U77G G84U C116A G141A A147G	≤ -4.2
C8A A49G G71A C93U G152A	≤ -4.2
C8U A19C U33G U53A U55A C96G C108U	-3.8
U7G C27A C93U A107G A150U	≤ -4.2
C8G G62C G70U C96A C103U	≤ -4.2
U9C A24U A41G C75U G83A G84A C93A	≤ -4.2
